Data set [1] addresses T1, SbF2H (CYP93G3; SbCYP93G3) (Sorghum bicolor, UniProt C5X6I4).
T1 construct: gene SORBI_3002G000400; N-terminal transmembrane region cut (borders not in text) and replaced with 2B1dH tag; codon-optimized; in E. coli with AtCPR2
T1 sequence (C5X6I4 42-541 limits assumed): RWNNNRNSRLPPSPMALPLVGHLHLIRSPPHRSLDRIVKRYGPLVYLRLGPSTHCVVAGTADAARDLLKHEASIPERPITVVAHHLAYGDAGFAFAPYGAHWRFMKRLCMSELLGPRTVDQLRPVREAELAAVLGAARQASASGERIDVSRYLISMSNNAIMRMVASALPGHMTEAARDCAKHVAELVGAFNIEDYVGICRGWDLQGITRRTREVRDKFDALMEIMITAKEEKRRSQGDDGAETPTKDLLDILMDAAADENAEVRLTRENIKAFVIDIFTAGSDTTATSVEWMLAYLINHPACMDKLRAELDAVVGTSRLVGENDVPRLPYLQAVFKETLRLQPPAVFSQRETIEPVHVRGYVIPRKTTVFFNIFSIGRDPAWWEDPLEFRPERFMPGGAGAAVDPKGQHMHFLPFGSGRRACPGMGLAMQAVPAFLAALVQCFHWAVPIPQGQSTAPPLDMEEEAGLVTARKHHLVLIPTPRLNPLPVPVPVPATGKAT
Kind of data set: E. coli whole-cell conversion, LC-MS of downstream vitexin/isovitexin. It is filed as cell-based. The following applies: coexpressed AtCPR2 and PhUGT708A43; naringenin made in vivo, 22 °C.

Substrate in data set [2]: O=C(CCc1ccc(O)cc1)c1c(O)cc(O)cc1O
The experiment in a line: HPLC of C-glucoside product, Michaelis-Menten fit. It is filed as biochemical, Phyllostachys edulis. Particulars: 400 μM UDP-glucose, 100 mM NaCl, 20 mM Tris-HCl pH 8.0, 37 °C, 20 min.

Substrate in data set [3]: O=C1CC(O)(c2ccc(O)cc2)Oc2cc(O)cc(O)c21
The experiment in a line: HPLC of C-glucoside product, Michaelis-Menten fit. In kind it is biochemical, Phyllostachys edulis. The following applies: 400 μM UDP-glucose, 100 mM NaCl, 20 mM Tris-HCl pH 8.0, 37 °C, 20 min.

As to `O=C1C[C@@H](c2ccc(O)cc2)Oc2cc(O)cc(O)c21` [Nar, naringenin], the “E. coli whole-cell conversion, LC-MS of downstream vitexin/isovitexin” value in data set [1] is “truncated ZmF2H/AtCPR2 (sCZ2) and truncated SbF2H/AtCPR2 (sCZ29)”.

B1: PhUGT708A43 (PhCGT1) (Phyllostachys edulis) (protein)
chain: MPTSGGRTGDRPHVILLPSAGMGHLVPFSRLAVALSSGHGCDVSVVAVLPTVSAAESRHLQGLLDASPAVRRLDLHLAPFDESEFPGADPFFLRFEAMRRSAPLLGPLLADTGASALVTDIALASVVIPVAKEIHLPCYVLFTASAAMLSFCAYFPTYLDTNAGRVVGDVDIPGVYRIPKASIPQALHDPNHLFTRQFVANGQDLAKADGVLVNTFDALELEAVTALRQGSVAAGFPPVFSVGPLVTVNLPAGEAAKESGNDYMYWLDAQPAQSVVYVSFGSRKAISRDQVRELAIGLEASGQPFLWVVKSTVVDRDDSAELSELLGEGFLERVQGQGFVTKAWVEQEEVLKHESIGLFISHCGWNSVTEAAASGVPVLAWPRFGDQRVNAGVVARGGLGVWVERWSWEGEEDVVSGEEIAEKVKAVMADETVRKKAASVGEAAVKEFADGGTSYRSLTEFVRRCRDLAVLD
notes: full-length ORF, pET28a (pCZ86), recombinant from E. coli, purified
For B1, the Km (as a rule, the substrate concentration at which the rate is half of its maximum) in data set [2] was found to be 15.83 ± 6.98 µM; in data set [3], 1.75 ± 0.66 µM.

Source of the values: paper PMC7060329, “Pathway-specific enzymes from bamboo and crop leaves biosynthesize anti-nociceptive C-glycosylated flavones” (Communications Biology, 2020).
